Measurements published in the Human Domainome abundance scans (Beltran et al. 2025).
± gives the uncertainty stated by the source.

B1: Serine/threonine-protein kinase A-Raf, residues 21 to 89; numbered along this chain, P10398 (parent)
chain: VKVYLPNKQRTVVTVRDGMSVYDSLDKALKVRGLNQDCCVVYRLIKGRKTVTAWDTAIAPLDGEELIVE

Variants of: B1
Experiment: abundance fitness (aPCA) (normalised: wild type 0, dead -1); higher = more abundant; growth selection in yeast, the domain comes from the species named
Settings: Homo sapiens

Q: With VKVYLPNKQRTVVTVRDGMSVYDSLDKALKVRGLNQDCCVVYRLIKGRKTVTAWGTAIAPLDGEELIVE as the variant, how does the abundance fitness read?
A: Its abundance fitness is -0.204 ± 0.029.

Q: With VKVYLPNKQRTVVTVRDGMSVYDSLDKALKVRGLNQDCCVVYRLIKGRKTVTAWCTAIAPLDGEELIVE as the variant, how does the abundance fitness read?
A: Its abundance fitness is -0.52 ± 0.087.

Q: Which abundance fitness does the source give for VKVYLPNKQRTVVTVRDGMSVYDSLDKALKVRGLNQDCCVVYRLIKGRKTVTAWFTAIAPLDGEELIVE here?
A: Its abundance fitness is -0.872 ± 0.13.

Q: With VKVYLPNKQRTVVTVRDGMSVYDSLDKALKVRGLNQDCCVVYRLIKGRKTVTAWRTAIAPLDGEELIVE as the variant, how does the abundance fitness read?
A: Its abundance fitness is -0.343 ± 0.025.

Q: Which abundance fitness does the source give for VKVYLPNKQRTVVTVRDGMSVYDSLDKALKVRGLNQDCCVVYRLIKGRKTVTAWVTAIAPLDGEELIVE here?
A: Its abundance fitness is -0.773 ± 0.062.

Q: With VKVYLPNKQRTVVTVRDGMSVYDSLDKALKVRGLNQDCCVVYRLIKGRKTVTAWITAIAPLDGEELIVE as the variant, how does the abundance fitness read?
A: The abundance fitness was -0.452 ± 0.14.

Q: For VKVYLPNKQRTVVTVRDGMSVYDSLDKALKVRGLNQDCCVVYRLIKGRKTVTAWLTAIAPLDGEELIVE, which abundance fitness is on record?
A: Its abundance fitness is -0.908 ± 0.076.

Q: With VKVYLPNKQRTVVTVRDGMSVYDSLDKALKVRGLNQDCCVVYRLIKGRKTVTAWTTAIAPLDGEELIVE as the variant, how does the abundance fitness read?
A: Its abundance fitness is -0.335 ± 0.053.

Q: Which abundance fitness does the source give for VKVYLPNKQRTVVTVRDGMSVYDSLDKALKVRGLNQDCCVVYRLIKGRKTVTAWSTAIAPLDGEELIVE here?
A: The abundance fitness was -0.168 ± 0.036.

Q: Which abundance fitness does the source give for VKVYLPNKQRTVVTVRDGMSVYDSLDKALKVRGLNQDCCVVYRLIKGRKTVTAWMTAIAPLDGEELIVE here?
A: Its abundance fitness is -0.557 ± 0.064.

Q: For VKVYLPNKQRTVVTVRDGMSVYDSLDKALKVRGLNQDCCVVYRLIKGRKTVTAWKTAIAPLDGEELIVE, which abundance fitness is on record?
A: Its abundance fitness is -0.347 ± 0.051.

Q: For VKVYLPNKQRTVVTVRDGMSVYDSLDKALKVRGLNQDCCVVYRLIKGRKTVTAWPTAIAPLDGEELIVE, which abundance fitness is on record?
A: Its abundance fitness is -0.852 ± 0.099.

Q: For VKVYLPNKQRTVVTVRDGMSVYDSLDKALKVRGLNQDCCVVYRLIKGRKTVTAWNTAIAPLDGEELIVE, which abundance fitness is on record?
A: Its abundance fitness is -0.098 ± 0.06.

Q: With VKVYLPNKQRTVVTVRDGMSVYDSLDKALKVRGLNQDCCVVYRLIKGRKTVTAWATAIAPLDGEELIVE as the variant, how does the abundance fitness read?
A: Its abundance fitness is -0.346 ± 0.041.

Q: For VKVYLPNKQRTVVTVRDGMSVYDSLDKALKVRGLNQDCCVVYRLIKGRKTVTAWETAIAPLDGEELIVE, which abundance fitness is on record?
A: Its abundance fitness is -0.089 ± 0.036.

Q: Which abundance fitness does the source give for VKVYLPNKQRTVVTVRDGMSVYDSLDKALKVRGLNQDCCVVYRLIKGRKTVTAWHTAIAPLDGEELIVE here?
A: Its abundance fitness is -0.234 ± 0.087.

Q: With VKVYLPNKQRTVVTVRDGMSVYDSLDKALKVRGLNQDCCVVYRLIKGRKTVTAWQTAIAPLDGEELIVE as the variant, how does the abundance fitness read?
A: The abundance fitness was -0.024 ± 0.045.

Q: For VKVYLPNKQRTVVTVRDGMSVYDSLDKALKVRGLNQDCCVVYRLIKGRKTVTAWYTAIAPLDGEELIVE, which abundance fitness is on record?
A: Its abundance fitness is -0.648 ± 0.15.

Q: For VKVYLPNKQRTVVTVRDGMSVYDSLDKALKVRGLNQDCCVVYRLIKGRKTVTAWDSAIAPLDGEELIVE, which abundance fitness is on record?
A: Its abundance fitness is -0.009 ± 0.038.

Q: For VKVYLPNKQRTVVTVRDGMSVYDSLDKALKVRGLNQDCCVVYRLIKGRKTVTAWDPAIAPLDGEELIVE, which abundance fitness is on record?
A: Its abundance fitness is -0.614 ± 0.11.

Q: Which abundance fitness does the source give for VKVYLPNKQRTVVTVRDGMSVYDSLDKALKVRGLNQDCCVVYRLIKGRKTVTAWDIAIAPLDGEELIVE here?
A: Its abundance fitness is -0.47 ± 0.099.

Q: Which abundance fitness does the source give for VKVYLPNKQRTVVTVRDGMSVYDSLDKALKVRGLNQDCCVVYRLIKGRKTVTAWDGAIAPLDGEELIVE here?
A: The abundance fitness was -0.21 ± 0.052.

Q: For VKVYLPNKQRTVVTVRDGMSVYDSLDKALKVRGLNQDCCVVYRLIKGRKTVTAWDNAIAPLDGEELIVE, which abundance fitness is on record?
A: The abundance fitness was -0.278 ± 0.3.

Q: With VKVYLPNKQRTVVTVRDGMSVYDSLDKALKVRGLNQDCCVVYRLIKGRKTVTAWDRAIAPLDGEELIVE as the variant, how does the abundance fitness read?
A: The abundance fitness was -0.276 ± 0.029.

Q: With VKVYLPNKQRTVVTVRDGMSVYDSLDKALKVRGLNQDCCVVYRLIKGRKTVTAWDCAIAPLDGEELIVE as the variant, how does the abundance fitness read?
A: The abundance fitness was -0.09 ± 0.085.

Q: With VKVYLPNKQRTVVTVRDGMSVYDSLDKALKVRGLNQDCCVVYRLIKGRKTVTAWDVAIAPLDGEELIVE as the variant, how does the abundance fitness read?
A: Its abundance fitness is -0.235 ± 0.034.

Q: With VKVYLPNKQRTVVTVRDGMSVYDSLDKALKVRGLNQDCCVVYRLIKGRKTVTAWDLAIAPLDGEELIVE as the variant, how does the abundance fitness read?
A: The abundance fitness was -0.253 ± 0.031.

Q: Which abundance fitness does the source give for VKVYLPNKQRTVVTVRDGMSVYDSLDKALKVRGLNQDCCVVYRLIKGRKTVTAWDYAIAPLDGEELIVE here?
A: The abundance fitness was -0.225 ± 0.075.

Q: With VKVYLPNKQRTVVTVRDGMSVYDSLDKALKVRGLNQDCCVVYRLIKGRKTVTAWDDAIAPLDGEELIVE as the variant, how does the abundance fitness read?
A: The abundance fitness was -0.069 ± 0.069.

Q: With VKVYLPNKQRTVVTVRDGMSVYDSLDKALKVRGLNQDCCVVYRLIKGRKTVTAWDEAIAPLDGEELIVE as the variant, how does the abundance fitness read?
A: Its abundance fitness is 0.106 ± 0.037.

Q: With VKVYLPNKQRTVVTVRDGMSVYDSLDKALKVRGLNQDCCVVYRLIKGRKTVTAWDKAIAPLDGEELIVE as the variant, how does the abundance fitness read?
A: The abundance fitness was -0.153 ± 0.049.

Q: Which abundance fitness does the source give for VKVYLPNKQRTVVTVRDGMSVYDSLDKALKVRGLNQDCCVVYRLIKGRKTVTAWDAAIAPLDGEELIVE here?
A: Its abundance fitness is 0.021 ± 0.047.

Q: For VKVYLPNKQRTVVTVRDGMSVYDSLDKALKVRGLNQDCCVVYRLIKGRKTVTAWDMAIAPLDGEELIVE, which abundance fitness is on record?
A: The abundance fitness was -0.095 ± 0.039.

Q: With VKVYLPNKQRTVVTVRDGMSVYDSLDKALKVRGLNQDCCVVYRLIKGRKTVTAWDHAIAPLDGEELIVE as the variant, how does the abundance fitness read?
A: Its abundance fitness is -0.151 ± 0.086.

Q: With VKVYLPNKQRTVVTVRDGMSVYDSLDKALKVRGLNQDCCVVYRLIKGRKTVTAWDFAIAPLDGEELIVE as the variant, how does the abundance fitness read?
A: The abundance fitness was -0.693 ± 0.17.

Q: Which abundance fitness does the source give for VKVYLPNKQRTVVTVRDGMSVYDSLDKALKVRGLNQDCCVVYRLIKGRKTVTAVDTAIAPLDGEELIVE here?
A: The abundance fitness was -0.913 ± 0.14.

Q: For VKVYLPNKQRTVVTVRDGMSVYDSLDKALKVRGLNQDCCVVYRLIKGRKTVTATDTAIAPLDGEELIVE, which abundance fitness is on record?
A: The abundance fitness was -0.797 ± 0.14.

Q: With VKVYLPNKQRTVVTVRDGMSVYDSLDKALKVRGLNQDCCVVYRLIKGRKTVTAQDTAIAPLDGEELIVE as the variant, how does the abundance fitness read?
A: The abundance fitness was -0.916 ± 0.16.

Q: Which abundance fitness does the source give for VKVYLPNKQRTVVTVRDGMSVYDSLDKALKVRGLNQDCCVVYRLIKGRKTVTASDTAIAPLDGEELIVE here?
A: The abundance fitness was -0.808 ± 0.14.
